No end group written: not given here.
Biological target: His-tagged murine Importin α1 with the Importin β binding domain (IBB) deleted (ImpαΔIBB) (murine, UniProt P52293 70-529)
Assay: crystal structure

binding result	Binder
binds	Ac-SHLSPRKKRPRQTGAL [TdT NLS peptide for crystallization, Ac-S7HLSPRKKRPRQTGAL]
binds	Ac-RGILKAFPKRQKIHADASSKVLAKIPRRE [pol λ NLS peptide for crystallization, Ac-R4GILKAFPKRQKIHADASSKVLAKIPRRE]
binds	Ac-LPKRRRARVGSPSGDAASSTPPSTRFPGV [pol μ NLS peptide for crystallization, Ac-L2PKRRRARVGSPSGDAASSTPPSTRFPGV]

Reference: publication PMC6684861 (Traffic (Copenhagen, Denmark), 2018)
